From US20170313756A1
Like-named read-outs stand apart in the source and are kept apart here.

What was measured:
Assay in all cases: 125I-NDP-MSH competition, HEK293 membranes
[1] = target: melanocortin 1 receptor (MC1R) (UniProt Q01726)
[2] = target: melanocortin 1 receptor (MC1R) (UniProt Q01726); remark: listed apart in the source
[3] = target: melanocortin 5 receptor (MC5R) (UniProt P33032)
[4] = target: melanocortin 1 receptor (MC1R) (UniProt Q01726); remark: listed apart in the source

Sequence of melanocortin 1 receptor (MC1R) (Q01726 whole entry): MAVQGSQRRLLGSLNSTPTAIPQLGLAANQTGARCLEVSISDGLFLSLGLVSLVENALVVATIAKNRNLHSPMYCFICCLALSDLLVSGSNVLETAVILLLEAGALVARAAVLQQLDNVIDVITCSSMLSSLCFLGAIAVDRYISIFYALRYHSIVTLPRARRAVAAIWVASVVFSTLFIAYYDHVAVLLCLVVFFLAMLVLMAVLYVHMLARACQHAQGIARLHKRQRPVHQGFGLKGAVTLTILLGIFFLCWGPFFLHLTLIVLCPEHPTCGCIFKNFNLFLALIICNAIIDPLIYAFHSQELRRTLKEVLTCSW
Sequence of melanocortin 5 receptor (MC5R) (P33032 whole entry): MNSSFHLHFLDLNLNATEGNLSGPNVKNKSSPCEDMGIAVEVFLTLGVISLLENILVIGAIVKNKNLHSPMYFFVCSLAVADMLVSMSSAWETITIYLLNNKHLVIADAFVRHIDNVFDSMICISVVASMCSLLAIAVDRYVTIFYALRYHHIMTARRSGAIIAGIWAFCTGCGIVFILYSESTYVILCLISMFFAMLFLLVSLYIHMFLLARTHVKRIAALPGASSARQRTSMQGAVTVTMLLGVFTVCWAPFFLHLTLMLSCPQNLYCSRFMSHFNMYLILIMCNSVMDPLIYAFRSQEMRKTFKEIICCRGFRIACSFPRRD

- Ki [1]: 4.1 nM
- Ki [2]: 4.6 nM
- Ki [3]: 25 µM
- Ki [4]: 4 nM
Substance: retro-inverso α-MSH (peptide)
